Source: the DeepSol protein solubility set

Assay: soluble on expression in E. coli; label from the status in PepcDB or PDB records

Sequence | soluble on expression in E. coli
NSNNKRAPYWTNTEKMEKRLHAVPAANTVKFRCPAGGNPMPTMRWLKNGKEFKQEHRIGGYKVRNQHWSLIMESVVPSDKGNYTCVVENEYGSINHTYHLDVVERSPHRPILQAGLPANASTVVGGDVEFVCKVYSDAQPHIQWIKHVEKNGSKYGPDGLPYLKVLKAAGVNTTDKEIEVLYIRNVTFEDAGEYTCLAGNSIGISFHSAWLTVLPAPGRE | soluble
RRAYGKNSKWVLINYNTGQPYEQTKVTPDGLIDYDAVLAANAAASNGSEAIFALGSNSHKWFGLLSSFKKKLNSSLTLTAGYDGRYYRGDHYDKITDLLGGSYYIEDPKTKLAYHAEGQQLKVGDIVNRDYTGEIMWHGLFAQMEHSSEWIDAFVSGSINYELYRNHNYGGSKSTGYLPGVSPWKSFLPWSGKAGLSYKFAQGHNVFANGGFFTRAPLFGNIYAAGAIIPNDKANMEKVLTGEVGYGFTNHKNFEFNINGYYTKWMDRVTSKRIGNEYVYLNGVDAVHCGVEAEVSYRPIRQIDLRGMFSLGDWTWQNNVSYTSYDEAGNETGQDITYIKGLHVGDAAQMTAAVSADIELFKGFHVIGKYNFLGKNYAGFNPATRNAQQYEADGKEIVESWKLPDVGLFDLSASYNFKLGSLSTTFYFNMDNVADKRYVSDADDNIIGKKHDEASALVWYGFGRTWSTGIRVNF | not soluble
AHHHHHHGSKLMEVSPLFPCIFLRRVNRFVGLVRIKERIERALITNTGRLNEFMIPGRIGYCTPKAGGKTRYILLGFEDHGKIAIIDTRLQGKAFEKIIEKELLPELEGCRIIKREPRVGESRLDYLLECSKGEIFVETKSAVLREGEYAMYPDCPSVRGQRHIKELIKLARDGKRAMIVFIGALPNVSKFKPYKKGDPKIAELLKEALEAGVEIRALGLHMELSGEIIYRGELGVEI | soluble
MVSAPSIDTPSATTFDFDSSVFKKEKVTLSGHDEYIVRGGRNLFPLLPDAFKGIKQIGVIGWGSQAPAQAQNLKDSLTEAKSDVVVKIGLRKGSNSFAEARAAGFSEENGTLGDMWETISGSDLVLLLISDSAQADNYEKVFSHMKPNSILGLSHGFLLGHLQSLGQDFPKNISVIAVCPKGMGPSVRRLYVQGKEVNGAGINSSFAVHQDVDGRATDVALGWSIALGSPFTFATTLEQEYKSDIFGERGILLGAVHGIVECLFRRYTESGMSEDLAYKNTVECITGVISKTISTKGMLALYNSLSEEGKKDFQAAYSASYYPSMDILYECYEDVASGSEIRSVVLAGRRFYEKEGLPAFPMGKIDQTRMWKVGEKVRSVRPAGDLGPLYPFTAGVYVALMMAQIEILRKKGHSYSEIINESVIEAVDSLNPFMHARGVSFMVDNCSTTARLGSRKWAPRFDYILSQQALVAVDNGAPINQDLISNFLSDPVHEAIGVCAQLRPSVDISVTADADFVRPELRQA | soluble
SLMLHAQHMPGQPGTPSLVFLHGFSGDCHEWQPVGEQFHGCSRLYIDLPGHGGSAAIPVDGFADVIRLLRATLISYNILKFWLVGYSLGGRVAMMAACQGIPGLCGLVVEGGHPGLQNEQARAERRLSDGRWAERFRHEPLTEVFHDWYQQPVFASLTAQQRQALTALRSQNNGETLAAMLEATSLAVQPDLREALNALAFPFYYLCGERDSKFRALAQEVAATCHVIRNAGHNAHRENPAGVVDSLAQILRL | soluble
AASSLDELVALCKRRGFIFQSSEIYGGLQGVYDYGPLGVELKNNLKQAWWRRNVYERDDMEGLDASVLTHRLVLHYSGHEATFADPMVDNAKARYWTPPRYFNMMFQDLRGPRGGRGLLAYLRPETAQGIFVNFKNVLDATSRKLGFGIAQIGKAFRNEITPRNFIFRVREFEQMEIEYFVRPGEDEYWHRYWVEERLKWWQEMGLSRENLVPYQQPPESSAHYAKATVDILYRFPHGSLELEGIAQRTDFDLGSHTKDQEALGITARVLRNEHSTQRLAYRDPETGKWFVPYVIEPSAGVDRGVLALLAEAFTREELPNGEERIVLKLKPQLAPIKVAVIPLVKNRPEITEYAKRLKARLLALGLGRVLYEDTGNIGKAYRRHDEVGTPFAVTVDYDTIGQSKDGTTRLKDTVTVRDRDTMEQIRLHVDELEGFLRERLRW | soluble
MSNIERRHTIMAKGSVRKKGKKWYYRFYVEDASGNLVQKECVGTESKSETEKLLRQAMDDYEKKKFVAKAENLTVGQLLDVWAEEELKTSTLSNGTVENYLGTIRNIKKHPLAERKLKNVTSEHLQSFFDLLSFGGVHPDGKEKKGYSKDYIHSFSAVMQQSFRFAVFPKQYITFNPMQYIKLRYQTDEVDLFSDEDMDGNIQPISREDYERLLAYLQKKNPAAILPIQIAYYAGLRIGEACGLAWQDVNLEEQCLTIRRSIRYDGSKRKYIIGPTKRKKVRVVDFGDTLVEIFRNARKEQLKNRMQYGELYHTNYYKEVKEKNRVYYEYYCLDRTEEVPADYKEISFVCLRPDGCLELPTTLGTVCRKVAKTLEGFEGFHFHQLRHTYTSNLLANGAAPKDVQELLGHSDVSTTMNVYAHSTRDAKRKSVRLLDKVVGND | not soluble
MRIGPELLQDLLDRVEGSLAAAIGTADGLLVEGVRKRPLDLEAAIAEHAALWRQARAAYARSLGAEEVGELLVGGTGVVGYLRSMRTRDPEPLFLLLLLTPEANLGQARLAARRLLDRAGGVVAWPT | soluble
MGSDKIHHHHHHAFCLDNGLGRTPPMGWMSWTAFYCEIDCVKHPTGCINEQLYKDMADQLVSGGYDKVGYKSVHIDDCWSEMERDSHGILVANKTRFPSGMKALAKYMHDRGLKFGIYEDYGTKTCGGYPGSYKHEKVDAQTFAAWDVDYLKLDGCNIDQAMMPIGYPLFEKELNETGRPIMYSCSW | not soluble
MGSDKIHHHHHHMEPDFYHGFYPPTPLKTYPEEIFYIGKCTENMQPVGLDIGTNYTKITADGKNVLLYPSIVAYGEEKDWSLKGETKSVYIGDEALSIVQSMENVEVLRPLHEGRVLHTSYLELAKYGLNKLKVKDGLIATGLPVKSSKKEREELKRELESELNSKVLIFPEPVGTMAYMGMETGVCVDIGFGTTDVLVIADMEYLKGDTMLMGVDKLYENLEVAVRNRIGISITPEEMTKLLTTEGYEIGRIRGGKKVSVSREEIMPEYEGYVKTWVERIASRVKLVLEGLSTTLVENFAITGGGSMLPGVYEMFKESFSDIGDVKRPDEPIKANSIGYYILAKSLVVEAETEQSGDAEILDADDKKKGRKGKK | not soluble
MSQATKRKHVVKEVLGEHIVPSNQQQIVRVLRTPGNNLHEVETAQGQRFLVSMPSKYRKNIWIKRGDFLIVDPIEEGEKVKAEISFVLCKDHVRSLQKEGFWPEAFSEVAEKHNNRNRQTQPELPAEPQLSGEESSSEDDSDLFVNTNRRQYHESEEESEEEEAA | soluble
MPRIVFDCLIDQPAARHLIERIDALTALLVRDNVVYSAHVDHQPQSPQPDSVREELTTTYLRDRGAETADELSDSVVALDELSLQRFTIVVDGLNGSLNETAMTYSRLLTPAARLSNDALDLTDEQRYEVPAAYPWTVFVSA | not soluble
MTGIREGEKELSLLGSKTEYRNDYAPEVLEAFTNKHQENDYWVRFNCPEFTSLCPITGQPDFATIYINYIPDVKMVESKSLKLYLFSFRNHGAFHEDCVNIIMKDLIALMQPRYIEVWGDFTPRGGISIVPFCNYGKPGSRYELLAEKRMETHH | not soluble
MAPINGIRDDDAASIRLRDSFRDEVSKRMGELLLKGQTMLDEYCPTCSGILMEDRALVRRCVTCELFREKSSVIVGEVSLQDEDLNEAVNNKIPTPAAPVNKPAKKAVLQKSAPAKKKEAVPAAAEPSSSDTIESATTAVLQKLEWATDRLNSTEEVARVMDFLSVIQKSAETLKALRI | not soluble
MSLNLIKYGLTTAVQADLTKENGQILGRIIGQHRDWYQVITTAGERSAQVTGKLAYEAASPAAFPAVGDWVCLSSSADNQAQIEAIAPRQSVLARGAVNRQDGQIIATNINTIFICMSLNADFNVRRLERYLTIAWDSGALPVIVLTKADLCTDLATKLRAVADVSVGVPTITCSVETGQGLDELQPYLTTGQTVAFVGSSGVGKSTLINRLLGQDILATKSIRTDDNKGRHTTTSRQLIPLPTGACVIDTPGMRELQIFMGDLNQTFAEIAALATQCKFNDCTHTSEPGCAVRAAVEVGTVTSERLQSYQKLQREMSYQGEGHHHHHH | soluble
MGSSHHHHHHSSGRENLYFQGSPVEKYNFKAEVNKVMDIIVNSLYTDKDVFLRELISNASDACDKKRIILENNKLIKDAEVVTNEEIKNETEKEKTENVNESTDKKENVEEEKNDIKKLIIKIKPDKEKKTLTITDNGIGMDKSELINNLGTIAQSGTAKFLKQIEEGKADSNLIGQFGVGFYSSFLVSNRVEVYTKKEDQIYRWSSDLKGSFSVNEIKKYDQEYDDIKGSGTKIILHLKEECDEYLEDYKLKELIKKYSEFIKFPIEIWSE | soluble
MGSDKIHHHHHHMTNKVVNNDKISSVGIIGCGWLGSALAYQLKNQDIAVLATRSNIDNIEQLKSQGIEAEVLSLPAEQAQLNTHPIFKQQCLVIAITPQFRQGRVDYADKVQQLVESAKVGNCVEQIILLSSSAIYNGLSGDVEENSILDMSADKVSVLNQAEQAVLSFNHPGRNESRLNALNAEVGNKKAYVLRLSGLVGPKRHPGKFLLNGHMLKSPQAIVNLIHQQDAVGLIQTLLQSANCGGIFNGVSSTKVTKKQYYQAAASALQLPTPTFEEIELSEDNAPKVVSGKKTQAELAYEFVYDDLLAWLELAV | not soluble
MSLVDTEIWLRLMSISSLYGDDMVRIAHWLARQSHIDAVVLQQTGLTLRQAQRFLSFPRKSIESSLCWLEQPNHHLIPADSEFYPPQLLATTDYPGALFVEGELHALHSFQLAVVGSRAHSWYGERWGRLFCETLAKHGVTITSGLARGIDGVAHKAALQVNGVSIAVLGNGLNTIHPRRHARLAASLLEQGGALVSEFPLDVPPLAYNFPRRNRIISGLSKGVLVVEAALRSGSLVTARCALEQGREVFALPGPIGNPGSEGPHWLIKQGAILVTEPEEILENLQFGLHWLPDAPENSFYSPDQEDVALPFPELLANVGDEVTPVDVVAERAGQPVPEVVTQLLELELAGWIAAVPGGYVRLRRACHVRRTNVFVEGHHHHHH | soluble
GVDGCGSVTLAYDGFNVNLLHSKVSDSLIPSEFQGEQGSVLVDMIATGRGVERILRGEEKETLTLPQTENHMFYEAEAFAKQLKLGVIDEQMKQRSLTVAKVLTEVRKQTGVVFPADQ | not soluble
NEIKKILIMPTWRDWLNSTYAFDNSDYMKHYLSLINSPKLQALINEYDIEINFYPHYRSQMFFKSFLTDNKSDINYIELGDKTVQELLVEHDLLITDYSSVSFDFSYMKKPVIFYHFDVKKFFRKGILRSIKDTFIGDIAHTEKELISLIEDNIKNPKNMEYQNLSSIFDYTDHHNNQRVYHSILDLIQDNT | not soluble
